# In patent US8029979B2, “Method for determining the substrate specificity of an enzyme” (JPT Peptide Technologies GmbH, priority 2001, dated 2011):
# Target: T1, protein kinase A (Bos taurus, UniProt P00517)
# T1 construct: purchased Sigma P26452 as printed
# Experiment: Incubation of modified glass surface (960 spots) with protein kinase A (FIG. 7, Example 27)
# Format: biochemical
# Conditions: aldehyde-functionalised glass, amino-oxy linkage, protein kinase A 10 U/mL, 30 min at 25° C.
# Experimental: FIG. 7. A glass surface modified with the peptide Dpr(Aoa)-Leu-Arg-Arg-Ala-Ser-Leu-Gly-NH2 (see Example 22) was first pre-incubated for 10 minutes using 10 ml of 100 μM ATP solution in 50 mM of sodium phosphate buffer pH 7.5. […] After incubation for 30 min at 25° C. the phosphorylation of the corresponding peptides was detected using a FUJIFILM PhosphorImager (see Example 14). […] It is furthermore clear that the resolution of the PhosphorImager used here is sufficient to analyse more than 950 measurement points per biochip.
# A glass surface modified with the peptide Dpr(Aoa)-Leu-Arg-Arg-Ala-Ser-Leu-Gly-NH2 (see Example 22) was incubated with 10 mL of 100 μM ATP in kinase buffer (50 mM tris-HCl, 150 mM NaCl, 30 mM MgCl2, 4 mM DTT, 2 mM EGTA, pH 7.5) for 10 minutes at room temperature. The glass surface was dried and a second unmodified glass surface of the same dimensions was then placed on the peptide-modified glass surface. […] Incubation was then carried out for 30 min at room temperature in an almost water-saturated atmosphere. […]
# After drying the glass surface the quantity of radioactive phosphate incorporated in the glass-surface-bound peptides was determined using a PhosphorImager system (FLA-3000, FUJIFILM) (see FIG. 7).
substance,measurement,value
Dpr(Aoa)-Leu-Arg-Arg-Ala-Ser-Leu-Gly-NH2 ({Dpr(Aoa)}-LRRASLG-NH2),linking of the immobilised kinase substrate tolerated by protein kinase A,tolerated by the protein kinase A
